One data set concerns the target T1, hK2 (Homo sapiens, UniProt P20151).
T1 construct: made in house
Briefly: Hydrolysis of hK2 substrates by hK2. The conditions noted are these: hK2 1 μg/ml, 50 mM Tris, 0.1 M NaCl, pH 7.8. In kind it is biochemical. How it is done: (§1) Hydrolyses of particular hK2 substrates were carried out at a hK2 concentrations of 1 μg/ml in 50 mM Tris buffer, with 0.1 M NaCl, at pH 7.8. Serum hydrolysis measurements were carried out in 50% fresh human serum in 50 mM Tris buffer, with 0.1 M NaCl, at pH 7.8. The single letter amino acid code was used to designate the peptide sequences used for Table 4. The units FU are arbitrary fluorescence units. The entries “U.D.” were for measurements of less than 0.01 FU/hour.

Data set [1] can be described thus: Serum hydrolysis of hK2 substrates. In kind it is in vitro ADME. The conditions noted are these: 50% fresh human serum in 50 mM Tris, 0.1 M NaCl, pH 7.8. On the procedure: as §1

T1 sequence (P20151 25-261): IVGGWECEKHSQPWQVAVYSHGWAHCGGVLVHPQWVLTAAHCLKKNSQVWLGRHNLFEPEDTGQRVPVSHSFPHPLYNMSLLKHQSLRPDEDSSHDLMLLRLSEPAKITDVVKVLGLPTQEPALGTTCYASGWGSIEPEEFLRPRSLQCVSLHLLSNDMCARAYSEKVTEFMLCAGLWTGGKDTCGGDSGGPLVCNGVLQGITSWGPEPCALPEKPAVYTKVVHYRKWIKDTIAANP

On to “SEQ ID NO: 66: hK2 substrate peptide, single letter sequence P7-P′1 (GHEQKRRL; listed as Homo sapiens)”, for which the “hK2 Hydrolysis Rate” value was determined as 5966.31 FU/hr/m with hK2 (Table 4) and 3366.5 FU/hr/m in the data set with hK2 (Table 5). Also, the “Serum Hydrolysis Rate” value in data set [1] (Table 4) is 0.17 FU/hr; in data set [1] (Table 5), “UD (The entries “U.D.” were for measurements of less than 0.01 FU/hour)”.
For the substance “SEQ ID NO: 67: hK2 substrate peptide, single letter sequence P7-P′1 (GGGKARRL; listed as Homo sapiens)”, the “hK2 Hydrolysis Rate” value with hK2 (Table 4) is reported as 4784.22 FU/hr/m. The “Serum Hydrolysis Rate” value in data set [1] (Table 4) was determined as 0.03 FU/hr.
“SEQ ID NO: 68: hK2 substrate peptide, single letter sequence P7-P′1 (GGGKAHRL; listed as Homo sapiens)”: the “hK2 Hydrolysis Rate” value with hK2 (Table 4) came out at 4100.94 FU/hr/m. In addition, the “Serum Hydrolysis Rate” value in data set [1] (Table 4) worked out at 0.09 FU/hr.
As for “SEQ ID NO: 69: hK2 substrate peptide, single letter sequence P7-P′1 (GPAHQRRL; listed as Homo sapiens)”, in the data set with hK2 (Table 4), the “hK2 Hydrolysis Rate” value worked out at 4017.81 FU/hr/m. Also, the “Serum Hydrolysis Rate” value in data set [1] (Table 4) is listed as 0.10 FU/hr.
Turning to “SEQ ID NO: 70: hK2 substrate peptide, single letter sequence P7-P′1 (GSKGHFRL; listed as Homo sapiens)”, the “hK2 Hydrolysis Rate” value with hK2 (Table 4) is reported as 3029.27 FU/hr/m. In addition, the “Serum Hydrolysis Rate” value in data set [1] (Table 4) was found to be 0.04 FU/hr.
As to “SEQ ID NO: 71: hK2 substrate peptide, single letter sequence P7-P′1 (GSKGHRRL; listed as Homo sapiens)”, the “hK2 Hydrolysis Rate” value with hK2 (Table 4) is on record as 2649.96 FU/hr/m. The “Serum Hydrolysis Rate” value in data set [1] (Table 4) is on record as “UD (The entries “U.D.” were for measurements of less than 0.01 FU/hour)”.
“SEQ ID NO: 72: hK2 substrate peptide, single letter sequence P7-P′1 (GKDVSRRL; listed as Homo sapiens)”: the “hK2 Hydrolysis Rate” value with hK2 (Table 4) worked out at 2316.12 FU/hr/m. Besides, the “Serum Hydrolysis Rate” value in data set [1] (Table 4) was 0.08 FU/hr.
In the case of “SEQ ID NO: 73: hK2 substrate peptide, single letter sequence P7-P′1 (GSQNQRRL; listed as Homo sapiens)”, the “hK2 Hydrolysis Rate” value with hK2 (Table 4) came out at 2100.48 FU/hr/m. The “Serum Hydrolysis Rate” value in data set [1] (Table 4) is 0.05 FU/hr.
Regarding “SEQ ID NO: 74: hK2 substrate peptide, single letter sequence P7-P′1 (GSYPSRRL; listed as Homo sapiens)”, in the data set with hK2 (Table 4), the “hK2 Hydrolysis Rate” value is given as 2060.21 FU/hr/m. Also, in data set [1] (Table 4), the “Serum Hydrolysis Rate” value is recorded as 0.09 FU/hr.
For the substance “SEQ ID NO: 75: hK2 substrate peptide, single letter sequence P7-P′1 (GSYPSSRL; listed as Homo sapiens)”, in the data set with hK2 (Table 4), the “hK2 Hydrolysis Rate” value is given as 1456.18 FU/hr/m. The “Serum Hydrolysis Rate” value in data set [1] (Table 4) is given as 0.06 FU/hr.
For “SEQ ID NO: 76: hK2 substrate peptide, single letter sequence P7-P′1 (GHEQKGRL; listed as Homo sapiens)”, in that order: 650.80 FU/hr/m and 0.04 FU/hr.
On to “SEQ ID NO: 77: hK2 substrate peptide, single letter sequence P7-P′1 (GSNTERRL; listed as Homo sapiens)”, for which, in the data set with hK2 (Table 4), the “hK2 Hydrolysis Rate” value is given as 592.34 FU/hr/m. In addition, in data set [1] (Table 4), the “Serum Hydrolysis Rate” value was “UD (The entries “U.D.” were for measurements of less than 0.01 FU/hour)”.
“SEQ ID NO: 78: hK2 substrate peptide, single letter sequence P7-P′1 (GSYEERRL; listed as Homo sapiens)”: in the data set with hK2 (Table 4), the “hK2 Hydrolysis Rate” value came out at 324.75 FU/hr/m. In addition, in data set [1] (Table 4), the “Serum Hydrolysis Rate” value is listed as 0.04 FU/hr.
For “SEQ ID NO: 79: hK2 substrate peptide, single letter sequence P7-P′1 (GKDVSGRL; listed as Homo sapiens)”, in the data set with hK2 (Table 4), the “hK2 Hydrolysis Rate” value was 242.91 FU/hr/m. Further, the “Serum Hydrolysis Rate” value in data set [1] (Table 4) was 0.05 FU/hr.
For “SEQ ID NO: 80: hK2 substrate peptide, single letter sequence P7-P′1 (GSNTEKRL; listed as Homo sapiens)”, the “hK2 Hydrolysis Rate” value with hK2 (Table 4) came out at 255.90 FU/hr/m. Moreover, the “Serum Hydrolysis Rate” value in data set [1] (Table 4) turned out to be 0.13 FU/hr.
For the substance “SEQ ID NO: 81: hK2 substrate peptide, single letter sequence P7-P′1 (GSKGHFHL; listed as Homo sapiens)”, the “hK2 Hydrolysis Rate” value with hK2 (Table 4) came to 171.47 FU/hr/m. The “Serum Hydrolysis Rate” value in data set [1] (Table 4) is listed as 0.10 FU/hr.
Turning to “SEQ ID NO: 82: hK2 substrate peptide, single letter sequence P7-P′1 (GSQNQVRL; listed as Homo sapiens)”, the “hK2 Hydrolysis Rate” value with hK2 (Table 4) was found to be 193.55 FU/hr/m. Further, the “Serum Hydrolysis Rate” value in data set [1] (Table 4) is recorded as 0.03 FU/hr.
“SEQ ID NO: 83: hK2 substrate peptide, single letter sequence P7-P′1 (GPLILSRL; listed as Homo sapiens)”: the “hK2 Hydrolysis Rate” value with hK2 (Table 4) was found to be 118.21 FU/hr/m. For the same substance, the “Serum Hydrolysis Rate” value in data set [1] (Table 4) was 0.07 FU/hr.
For “SEQ ID NO: 84: hK2 substrate peptide, single letter sequence P7-P′1 (GSYEERHL; listed as Homo sapiens)”, in the data set with hK2 (Table 4), the “hK2 Hydrolysis Rate” value came to 42.87 FU/hr/m. For the same substance, the “Serum Hydrolysis Rate” value in data set [1] (Table 4) came to 0.09 FU/hr.
Turning to “SEQ ID NO: 85: hK2 substrate peptide, single letter sequence P7-P′1 (GKDVSGHL; listed as Homo sapiens)”, in the data set with hK2 (Table 4), the “hK2 Hydrolysis Rate” value is 67.55 FU/hr/m. For the same substance, the “Serum Hydrolysis Rate” value in data set [1] (Table 4) is given as 0.05 FU/hr.
On to “SEQ ID NO: 86: hK2 substrate peptide, single letter sequence P7-P′1 (GGGKAHHL; listed as Homo sapiens)”, for which the “hK2 Hydrolysis Rate” value with hK2 (Table 4) was found to be 70.15 FU/hr/m. Moreover, the “Serum Hydrolysis Rate” value in data set [1] (Table 4) was determined as 0.05 FU/hr.
For the substance “SEQ ID NO: 87: hK2 substrate peptide, single letter sequence P7-P′1 (GSNTEKHL; listed as Homo sapiens)”, the “hK2 Hydrolysis Rate” value in the data set with hK2 (Table 4) stood at 80.54 FU/hr/m. The “Serum Hydrolysis Rate” value in data set [1] (Table 4) came out at 0.03 FU/hr.
For “SEQ ID NO: 88: hK2 substrate peptide, single letter sequence P7-P′1 (GPAHQDRL; listed as Homo sapiens)”, in that order: 75.34 FU/hr/m and 0.06 FU/hr.
For the substance “SEQ ID NO: 89: hK2 substrate peptide, single letter sequence P7-P′1 (GHEQKGHL; listed as Homo sapiens)”, the “hK2 Hydrolysis Rate” value with hK2 (Table 4) was 1.30 FU/hr/m. Moreover, the “Serum Hydrolysis Rate” value in data set [1] (Table 4) is “UD (The entries “U.D.” were for measurements of less than 0.01 FU/hour)”.
For “SEQ ID NO: 90: hK2 substrate peptide, single letter sequence P7-P′1 (GPAHQDHL; listed as Homo sapiens)” the same measures were 48.06 FU/hr/m and 0.00 FU/hr.
With “SEQ ID NO: 91: hK2 substrate peptide, single letter sequence P7-P′1 (GSYPSSHL; listed as Homo sapiens)”, in the data set with hK2 (Table 4), the “hK2 Hydrolysis Rate” value amounted to 24.68 FU/hr/m. For the same substance, in data set [1] (Table 4), the “Serum Hydrolysis Rate” value is listed as “UD (The entries “U.D.” were for measurements of less than 0.01 FU/hour)”.
